Results as given in patent US20020106775.

Tested on: plasminogen

Substance: LMW-uPA-A279 (LMW-uPA with Cys279 to Ala279 replacement)
- zymography: the product shown to be active in zymography (data not shown)
